The target in test [1] is AAV8 (recombinant adeno-associated virus serotype 8 particles, capsid of VP1, VP2 and VP3 of AAV8) (adeno-associated virus 8 (AAV8)). In words: affinity chromatography on AAVX column, +2-8° C., ELT-buffer pH 7.0; AAV8 ELISA of fraction. In general terms: An ELISA detects its analyte on a solid surface through an enzyme-linked reagent.
Test [2] addresses AAV9 (recombinant adeno-associated virus serotype 9 particles, capsid of VP1, VP2 and VP3 of AAV9) (adeno-associated virus 9 (AAV9)). In words: batch adsorption, 0.2 g resin + 9.6 g LOAD, 15 to 16 h at +2° C. to +8° C.; AAV9 ELISA of supernatant.
In test [3] the target is AAV8 (recombinant adeno-associated virus serotype 8 particles, capsid of VP1, VP2 and VP3 of AAV8) (adeno-associated virus 8 (AAV8)). In words: affinity chromatography on AAVX column, +2-8° C., 125 mM NaCl/50 mM TrisHCl pH 8.5; AAV8 ELISA of fraction.
Test [4] concerns the target AAV9 (recombinant adeno-associated virus serotype 9 particles, capsid of VP1, VP2 and VP3 of AAV9) (adeno-associated virus 9 (AAV9)). As to the kind of experiment: affinity chromatography on AAVX column, +22-28° C., 125 mM NaCl/50 mM TrisHCl pH 8.5; AAV9 ELISA of fraction.
Test [5] has as its target AAV8 (recombinant adeno-associated virus serotype 8 particles, capsid of VP1, VP2 and VP3 of AAV8) (adeno-associated virus 8 (AAV8)). In words: affinity chromatography on AAVX column, +18-26° C., 125 mM NaCl/50 mM TrisHCl pH 8.5; AAV8 ELISA of fraction.
Test [6] has the same target. In words: affinity chromatography on AAVX column, +2-8° C., 100 mM NaAcetate/0.1% Tween 80 pH 6.0; AAV8 ELISA of fraction.
For test [7], the target named is AAV9 (recombinant adeno-associated virus serotype 9 particles, capsid of VP1, VP2 and VP3 of AAV9) (adeno-associated virus 9 (AAV9)). As to the kind of experiment: affinity chromatography on AAVX column, +22-28° C., 100 mM NaAcetate/0.1% Tween 80 pH 6.0; AAV9 ELISA of fraction.
Test [8] addresses AAV8 (recombinant adeno-associated virus serotype 8 particles, capsid of VP1, VP2 and VP3 of AAV8) (adeno-associated virus 8 (AAV8)). As to the kind of experiment: affinity chromatography on AAVX column, +18-26° C., 100 mM NaAcetate/0.1% Tween 80 pH 6.0; AAV8 ELISA of fraction.
Test [9] concerns the target AAV9 (recombinant adeno-associated virus serotype 9 particles, capsid of VP1, VP2 and VP3 of AAV9) (adeno-associated virus 9 (AAV9)). In words: affinity chromatography on AAVX column, gradient 1 mM to 20 mM HCl/200 mM NaCl at +2-8° C.; AAV9 ELISA of fraction.
Test [10] shares this target. As to the kind of experiment: affinity chromatography on AAVX column, strip at +2-8° C. with 100 mM Glycine, 200 mM NaCl pH 2.0; AAV9 ELISA of fraction.
Test [11] shares this target. In words: affinity chromatography on AAVX column, elution at +2-8° C. with 125 mM NaCl/50 mM TrisHCl pH 8.5; AAV9 ELISA of fraction.
Test [12] has as its target AAV8 (recombinant adeno-associated virus serotype 8 particles, capsid of VP1, VP2 and VP3 of AAV8) (adeno-associated virus 8 (AAV8)). In words: affinity chromatography on AAVX column, gradient 1 mM to 20 mM HCl/200 mM NaCl at +2-8° C.; AAV8 ELISA of pooled fraction.
Test [13] deals with AAV9 (recombinant adeno-associated virus serotype 9 particles, capsid of VP1, VP2 and VP3 of AAV9) (adeno-associated virus 9 (AAV9)). In words: affinity chromatography on AAVX column, elution at +2-8° C. with 100 mM NaAcetate/0.1% Tween 80 pH 6.0; AAV9 ELISA of fraction.
The target is the same in test [14]. In words: affinity chromatography on AAVX column, standard elution at +18-26° C. with 100 mM Glycine, 200 mM NaCl pH 2.7; AAV9 ELISA of fraction.
For test [15] the target is unchanged. As to the kind of experiment: affinity chromatography on AAVX column, +22-28° C., 125 mM NaCl/50 mM TrisHCl pH 8.5; AAV9 ELISA of fraction (load 2.86 x 10^11 cp/ml).
Test [16] addresses AAV8 (recombinant adeno-associated virus serotype 8 particles, capsid of VP1, VP2 and VP3 of AAV8) (adeno-associated virus 8 (AAV8)). In words: affinity chromatography on AAVX column, +18-26° C., 125 mM NaCl/50 mM TrisHCl pH 8.5; AAV8 ELISA of fraction (load 23.2 x 10^11 cp/ml).
For test [17], the target named is AAV9 (recombinant adeno-associated virus serotype 9 particles, capsid of VP1, VP2 and VP3 of AAV9) (adeno-associated virus 9 (AAV9)). In words: batch adsorption, 0.2 g resin + 9.6 g LOAD, 15 to 16 h at +18° C. to +30° C., 125 mM NaCl/50 mM Tris HCl pH 8.5; AAV9 ELISA of supernatant.
For test [18] the target is unchanged. As to the kind of experiment: batch adsorption at room temperature, then 30 min in 1 ml cold 125 mM NaCl/50 mM Tris HCl pH 8.5 at +2° C. to +8° C.; AAV9 ELISA of supernatant.

A value given as a limit tells only on which side of the number the result lay.

We go through 1 substance from US20220267796A1.

In the case of “POROS CaptureSelect AAVX Affinity Resin (Cat. No. 36742; Thermo Fisher), immobilised affinity ligand”, the AAV8 Antigen cp/ml in low temperature eluate 2 in test [1] was < 1.59e+09 cp/ml. In test [2], the % AAV9 Antigen in supernatant (not bound) after incubation at low temperature came to 63.7%. Moreover, in test [3], the AAV8 Antigen cp/ml in low temperature eluate 3 was < 1.59e+09 cp/ml. Besides, in test [4], the AAV9 Antigen [%] of load found in flow-through/wash 1 (not bound) came to 1.76%, the AAV9 Antigen [%] of load found in wash 3 came to 0.04% and the AAV9 Antigen cp/ml in wash 3 was < 3.8e+09 cp/ml. Further, in test [5], the AAV8 Antigen cp/ml in wash 3 was < 1.59e+09 cp/ml. In addition, the AAV8 Antigen cp/ml in low temperature eluate 1 in [6] is < 1.59e+09 cp/ml. Besides, in test [7], the AAV9 Antigen [%] of load found in wash 2 came out at 0.04%, the AAV9 Antigen cp/ml in wash 2 is < 3.8e+09 cp/ml and the AAV9 Antigen cp/ml in wash 4 is < 3.8e+09 cp/ml. Further, in test [8], the AAV8 Antigen cp/ml in wash 2 was < 1.59e+09 cp/ml and the AAV8 Antigen cp/ml in wash 4 was < 1.59e+09 cp/ml. Besides, the AAV9 Antigen [%] of load released by acidic gradient in test [9] stood at 5.42%. In test [10], the AAV9 Antigen [%] of load released only by acidic strip was determined as 16.9%. In addition, in test [11], the AAV9 Antigen [%] of load released in low temperature eluate is 44.8% and the AAV9 Antigen [%] of load released in low temperature eluate 3 was determined as 11.6%. Also, the AAV8 Antigen [%] of load released by acidic gradient in test [12] stood at 75.8%. In addition, the AAV9 Antigen [%] of load released in low temperature eluate 1 in [13] turned out to be 61.2%. The AAV9 Antigen [%] of load released by acidic elution in [14] is 81.5%. The AAV9 Antigen cp/ml in flow-through/wash 1 (not bound) in test [15] was < 3.8e+09 cp/ml. The AAV8 Antigen cp/ml in flow-through/wash 1 (not bound) in [16] was < 1.59e+09 cp/ml. The % AAV9 Antigen in supernatant (not bound) after incubation at room temperature in [17] came out at 6.2%. The % AAV9 Antigen in eluate (released at low temperature) in test [18] amounted to 36.7%.
